Our source for the Kd values is publication PMC8782670, “Production and Characterization of RNA Aptamers Specific for Amyloid Fibril Epitopes”.

This data set addresses beta2-microglobulin, monomer at pH 3.6 (biotinylated, partially folded) (human, UniProt P61769 21-119). The data set can be described thus: SPR; pH 3.6, 250 mM NaCl; apparent, 1:1 fit; SPR: Buffer A pH 3.6, 250 mM NaCl, 25 C, 0.5 uM RNA; dot blot: Buffer A pH 7.0, 1 M NaCl, 10 ug/ml BSA and yeast tRNA, 21 C (Buffer A composition not given). The conditions noted are these: protein: recombinant; tags: biotin; interrupted stem-loop (Mfold).

Sequence of beta2-microglobulin, monomer at pH 3.6 (biotinylated, partially folded) (P61769 21-119): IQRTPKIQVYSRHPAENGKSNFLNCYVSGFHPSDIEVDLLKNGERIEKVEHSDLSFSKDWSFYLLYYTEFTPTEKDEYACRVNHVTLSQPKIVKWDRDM

B1: M-2 (structured_RNA)
RNA: GGGCCAAGCUUGCAUGCCUGCAGUUGGUUACGCGUACAGUGAAACUCGGAAAGUUGAAGGGCCAAAUGGGAACGGUACCGAGCUCAGGUUCCC
In the case of B1, the Kd is approximately 10 nM.
